The supplement of paper PMC9170038

Test system: MS2 coat protein
Test: apparent KD of MS2 coat protein; designed switch direction (-1 OFF switch, 1 ON switch): -1; higher = weaker reporter binding
How it was run: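 For each design, the apparent KD is the median over clusters of curves fitted to normalised cluster fluorescence. Clusters held RNA switches with common flanks, transcribed on Illumina chips by stalled E. coli RNA polymerase. These were titrated with SNAP-549-labelled MS2 coat protein, doubling from 0.7 or 1.5 nM to 3 µM, without input, with 200 uM small-molecule ligand, or with an oligonucleotide input.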

[1] = Eterna round: R95, input ligand: FMN 200 uM
[2] = Eterna round: R95, input ligand: microRNA oligo, concentration not stated
[3] = Eterna round: R95, input ligand: none
[4] = input ligand: microRNA oligo, concentration not stated

Sequence: AAUACUAACAGCUGACUGUUAGUACUGUAGGUUUGUGUUACAUGAGGAUCACCCAUGUCCUCAUAGGCUCGUCUUGU [Mat - Sensor v3 - Turn-off var 2 - D98] (puzzle: Sensor v3, turn-off variant 2)
- apparent KD of MS2 coat protein [1]: 0.586 µM
- apparent KD of MS2 coat protein [2]: 0.322 µM
- apparent KD of MS2 coat protein [3]: 0.697 µM

Sequence: CAUGCUUCGGCAUGUACAAGCUUUUUGCUCGUCUUAUUAACAUGAGGAUCACCCAUGUCAAAGAGACCUCAUGUAUU [Sensor v3 - turn-off variant 2 - 3] (puzzle: Sensor v3, turn-off variant 2)
- apparent KD of MS2 coat protein [1]: 0.356 µM
- apparent KD of MS2 coat protein [2]: 0.016 µM
- apparent KD of MS2 coat protein [3]: 0.263 µM

Sequence: CUUGUAUAUCAGGAUAUGAUUUUAUAUAUUGGAUCAGAAGGGAUAACAUGAGGAUCACCCAUGUUGUGGAGUGA [JR_Ex6_Sub038] (Eterna round: R97, puzzle: Exclusion 6)
- apparent KD of MS2 coat protein (input ligand: FMN 200 uM): 0.0905 µM
- apparent KD of MS2 coat protein (input ligand: none): 0.204 µM

Sequence: GCUGGCUGAGGAUAUCUAUCCAUGAACAUGAGGAUCACCCAUGUAAACGUGGAGUGAGAUAGAGAAGGCGGGCAGA [EX5 A.13] (Eterna round: R97, puzzle: Exclusion 5)
- apparent KD of MS2 coat protein (input ligand: FMN 200 uM): 0.0136 µM
- apparent KD of MS2 coat protein (input ligand: none): 0.0112 µM

Sequence: UUUAAUUUAAUUAAGAUCACAUGAGGAUCACCCAUGUAAUUAUAGGAUAUCAGCUCGAUUAGAGCUGAGAAGGAUAAUUACAUA [ExNG3/5-A1] (Eterna round: R96, puzzle: Exclusion NG 3)
- apparent KD of MS2 coat protein (input ligand: FMN 200 uM): 0.105 µM
- apparent KD of MS2 coat protein [4]: 0.0751 µM
- apparent KD of MS2 coat protein (input ligand: none): 0.0581 µM

Sequence: AAGAAGAAACAAGCUUUUUGCACGUCAUAUAGUGACGCAACAUGAGGAUCACCCAUGUAUAGGGUGGGAAAGGAUAG [JR_SV3TOV2_Sub047] (Eterna round: R96, puzzle: Sensor v3, turn-off variant 2)
- apparent KD of MS2 coat protein (input ligand: FMN 200 uM): 0.669 µM
- apparent KD of MS2 coat protein [4]: 0.352 µM
- apparent KD of MS2 coat protein (input ligand: none): 0.826 µM

Sequence: GUAAAACAUGAGGAUCACCCAUGUCAGGAUAUACGAUUCCACCCUAACUGCGUGGAACGUAGAAGGGACAUAGG [Exclusion 1 (MOD6.1 Esqu)] (Eterna round: R97, puzzle: Exclusion 1)
- apparent KD of MS2 coat protein (input ligand: FMN 200 uM): 0.0579 µM
- apparent KD of MS2 coat protein (input ligand: none): 0.221 µM

Sequence: CCUCACAGAGGAUAUACGUCCACUGAACCCAUGAGGUUGCCACAUGAGGAUCACCCAUGUAGAAGGCUGUGCUG [Mageanma] (puzzle: Exclusion 2)
- apparent KD of MS2 coat protein [2]: 0.0189 µM

Sequence: ACAUGAGGAUCACCCAUGUGGACGAAAAGGCUCAUGUAGAGUGAGGAUAUGUGAGACGAACGAGAACAGAAGGCACAAGACAGG [Deportation 5 - Jieux - Exclusion NG 3] (Eterna round: R96, puzzle: Exclusion NG 3)
- apparent KD of MS2 coat protein (input ligand: FMN 200 uM): 0.0174 µM
- apparent KD of MS2 coat protein [4]: 0.0223 µM
- apparent KD of MS2 coat protein (input ligand: none): 0.02 µM

Sequence: UUAUUAUAUGUAGGAUAUGCAUAUUAUUAUUAUGCAGAAGGACAUGAGGAUCACCCAUGUAUAUUAUUAUUGUAUAUUAUAUAU [Title] (Eterna round: R96, puzzle: Exclusion NG 1)
- apparent KD of MS2 coat protein [4]: 0.0257 µM

Sequence: UAACAAGCUUAAAGAUCCUACAUGAGGAUCACCCAUGUGCUCGUCUUGUAACGUACUGUGACGAAAGUCACGGUACG [JL TOV1 3.15] (Eterna round: R97, puzzle: Sensor, turn-off variant 1)
- apparent KD of MS2 coat protein (input ligand: FMN 200 uM): 0.521 µM
- apparent KD of MS2 coat protein (input ligand: none): 0.314 µM

Sequence: AUUUGGUCAGGAUAUUGUUAGUUUAGUUGUUUGUAUUAGUUCGAGAAGGGACAUGAGGAUCACCCAUGUGAUUU [Ex4 #75] (Eterna round: R97, puzzle: Exclusion 4)
- apparent KD of MS2 coat protein (input ligand: FMN 200 uM): 0.0871 µM
- apparent KD of MS2 coat protein (input ligand: none): 0.1 µM

Sequence: GGGCUGUCAGGAUAUCCCGGGCCCGGGUAAACCCGGGUUUGGGAGAAGGGACAUGAGGAUCACCCAUGUGGCCC [-39.8, -38.8 kcal, A 20%, 5cbis-0] (Eterna round: R97, puzzle: Exclusion 4)
- apparent KD of MS2 coat protein (input ligand: FMN 200 uM): 0.0348 µM
- apparent KD of MS2 coat protein (input ligand: none): 0.0341 µM

Sequence: CUCCUCGUGGCGCCUAAACACAUGAGGAUCACCCAUGUACAGGCUUUUUGCCGUCUUAUAAUAAAACCGAGGAGACG [Ataesarxe] (puzzle: Sensor v3, turn-off variant 1)
- apparent KD of MS2 coat protein [1]: 0.0166 µM
- apparent KD of MS2 coat protein [2]: 0.0188 µM
- apparent KD of MS2 coat protein [3]: 0.0166 µM

Sequence: CCCACAAGCUUUUUGCUCGACAUGAGGAUCACCCAUGUUGAAUGGGUUAUAUAUAUAUGAAACAUAUAUAUAUACCU [-24.7, -47.5 kcal, A 32%] (Eterna round: R97, puzzle: Sensor, turn-off variant 1)
- apparent KD of MS2 coat protein (input ligand: FMN 200 uM): 0.0204 µM
- apparent KD of MS2 coat protein (input ligand: none): 0.0202 µM

Sequence: CCUAUGUUAGGAUAUUGCUCUCAGCCGUAGGAGGACAUGACCGAGAAGGAACAUGAGGAUCACCCAUGUGUAUU [Eternabot (L2) Solution 53] (Eterna round: R97, puzzle: Exclusion 4)
- apparent KD of MS2 coat protein (input ligand: FMN 200 uM): 0.0174 µM
- apparent KD of MS2 coat protein (input ligand: none): 0.024 µM

Sequence: UCACGGGACUGAGGAUAUACAUGAAUUAUUUUUGUAGAAGGCAGAAUGUUAGAUUAUACACUAUACAUGAGGAUCACCCAUGUU [JR_ExcNG1_Sub023] (Eterna round: R96, puzzle: Exclusion NG 1)
- apparent KD of MS2 coat protein (input ligand: FMN 200 uM): 0.0161 µM
- apparent KD of MS2 coat protein [4]: 0.0205 µM
- apparent KD of MS2 coat protein (input ligand: none): 0.0197 µM

Sequence: AUAUUGUGAGGAUAUGAACUUAGUAUCGAAAGAUAGUAAGUUCAGAAGGCACAUGAGGAUCACCCAUGUUUCUC [Long static hairpin v8] (Eterna round: R97, puzzle: Exclusion 4)
- apparent KD of MS2 coat protein (input ligand: FMN 200 uM): 0.399 µM
- apparent KD of MS2 coat protein (input ligand: none): 0.0698 µM

Sequence: CAUACUCAAGUCAGGAUAUGCAGUCGAAUACGGGUGUAGAAGGGACAUGAGGAUCACCCAUGUAGAGAGUAAAG [EX-4 Malc #21] (puzzle: Brourd's mod of Exclusion 4)
- apparent KD of MS2 coat protein [1]: 0.0998 µM
- apparent KD of MS2 coat protein [2]: 0.0368 µM
- apparent KD of MS2 coat protein [3]: 0.0511 µM

Sequence: GACGUGUGAGGAUAUGCCGUGCCGGUCCGGAAGGUUCGGGUGCAGAAGGCACAUGAGGAUCACCCAUGUGUAAG [Excls4-VI] (puzzle: Exclusion 4)
- apparent KD of MS2 coat protein [2]: 0.0177 µM

Sequence: GAUCCGUUAGGAUAUACAGGAUUCACGCCUGAGUGAAUGUAGUAGAAGGAACAUGAGGAUCACCCAUGUGGUAU [Eternabot (L1) Solution 85] (Eterna round: R97, puzzle: Exclusion 4)
- apparent KD of MS2 coat protein (input ligand: FMN 200 uM): 0.0832 µM
- apparent KD of MS2 coat protein (input ligand: none): 0.0405 µM

Sequence: GGAUCCUGGGUCAGGAUAUGCUGACAGCUUUGUCAGCAGAAGGGACAUGAGGAUCACCCAUGUGCUCGGUUUUG [Magic-20] (puzzle: Brourd's mod of Exclusion 4)
- apparent KD of MS2 coat protein [2]: 0.00968 µM

Sequence: AAACAAGCGUGAGGCUCGUCUUAAAAAGCCUCAUGAAAAACAUGAGGAUCACCCAUGUAAAAUGAUCGAAAGAUCAA [JL turnoff v2 29] (Eterna round: R96, puzzle: Sensor v2, turn-off variant 2)
- apparent KD of MS2 coat protein (input ligand: FMN 200 uM): 0.0155 µM
- apparent KD of MS2 coat protein [4]: 0.0434 µM
- apparent KD of MS2 coat protein (input ligand: none): 0.0176 µM

Sequence: GGGAUGUCAGGAUAUCCAAAAGUCCGCCAGUACGGCAGACAGGAGAAGGGACAUGAGGAUCACCCAUGUAAAGA [Leinrete] (puzzle: Exclusion 4)
- apparent KD of MS2 coat protein [1]: 0.089 µM
- apparent KD of MS2 coat protein [2]: 0.0326 µM
- apparent KD of MS2 coat protein [3]: 0.0383 µM

Sequence: GUCAGCUCGUCAGGAUAUAUUAACAUGAGGAUCACCCAUGUAAGAUCAGGCUUCGGCCAAUGUUAAUAGAAGGGACGAGCUGAC [ENG2/12-B1] (Eterna round: R96, puzzle: Exclusion NG 2)
- apparent KD of MS2 coat protein (input ligand: FMN 200 uM): 0.132 µM
- apparent KD of MS2 coat protein [4]: 0.745 µM
- apparent KD of MS2 coat protein (input ligand: none): 0.438 µM

Sequence: ACCUUACAUGAGGAUCACCCAUGUCAGGAUAUCUCGGGCGGCUGAGGACCAGCCACCCAGAGAAGGGACGAGGA [Qumaraanan] (puzzle: Exclusion 1)
- apparent KD of MS2 coat protein [1]: 0.015 µM
- apparent KD of MS2 coat protein [2]: 0.0119 µM
- apparent KD of MS2 coat protein [3]: 0.0157 µM

Sequence: UGAGUGCUGCGAGGAUAUACAUGAGGAUCACCCAUGUUUUCGUGUGAGGCUUUGCCUCACACGAAGUAGAAGGCGCAGUACUCU [JL ENG2 1.12] (Eterna round: R96, puzzle: Exclusion NG 2)
- apparent KD of MS2 coat protein (input ligand: FMN 200 uM): 0.0108 µM
- apparent KD of MS2 coat protein [4]: 0.0118 µM
- apparent KD of MS2 coat protein (input ligand: none): 0.0123 µM

Sequence: UUUUAACAUGAGGAUCACCCAUGUGAGGAUAUCGAAAUUUAUAUUUAUAUUUAUAAUACGAGAAGGCACAUUUU [JMF 94] (puzzle: Exclusion 1)
- apparent KD of MS2 coat protein [2]: 0.0823 µM

Sequence: ACGUUUUUUGAGGAUAUGCGAUAGUUUUAUAUCGUAGAAGGCGAUACAUGAGGAUCACCCAUGUUUAUGGGCAU [LRO-Ex6-20] (puzzle: Exclusion 6)
- apparent KD of MS2 coat protein [2]: 0.155 µM

Sequence: CAUGGGUGUGAGCCGCAUUACAUGAGGAUCACCCAUGUCAACAAGCUUUUUGCUUGUCUUACGCGGCGGCACCAAAA [Bimaus] (puzzle: Sensor v3, turn-off variant 1)
- apparent KD of MS2 coat protein [1]: 0.0174 µM
- apparent KD of MS2 coat protein [2]: 0.00965 µM
- apparent KD of MS2 coat protein [3]: 0.0149 µM

Sequence: UGUGCAACAGGAUAUAUGUGGCGUCCGUGAGGACGAAGGUUACAUGAGGAUCACCCAUGUAGAAGGGUUGUACU [Mat - Exclusion 2 - JL Mod - D24] (Eterna round: R97, puzzle: Exclusion 2)
- apparent KD of MS2 coat protein (input ligand: FMN 200 uM): 0.218 µM
- apparent KD of MS2 coat protein (input ligand: none): 0.0685 µM

Sequence: CCUGCACAUGAGGAUCACCCAUGUCAGGAUAUCUCGCCGUCGGCUUGCCGACGGUAUUAGAGAAGGGACAAGGG [JL Tixe mod 2] (puzzle: Exclusion 1)
- apparent KD of MS2 coat protein [2]: 0.0219 µM

Sequence: GAAAAGGUAGGAUAUACGAAAAAGAAGGGUAGAAAAAAAACACAUGAGGAUCACCCAUGUAGAAGGACCAAAAG [salish99_ex2_r3_026] (puzzle: Exclusion 2)
- apparent KD of MS2 coat protein [1]: 0.056 µM
- apparent KD of MS2 coat protein [2]: 0.0241 µM
- apparent KD of MS2 coat protein [3]: 0.021 µM

Sequence: UUCACAUGGACAUAAGAUCACAUGAGGAUCACCCAUGUGAAUAACAAGCUUUUUGCUCGUCUUAUGUCCAAUAAUAG [Stov1/14-A2] (Eterna round: R97, puzzle: Sensor, turn-off variant 1)
- apparent KD of MS2 coat protein (input ligand: FMN 200 uM): 0.0158 µM
- apparent KD of MS2 coat protein (input ligand: none): 0.0133 µM

Sequence: UUGUUAUAUGUAGGAUAUGCAUAUUAUUAUUAUGCAGAAGGACAUGAGGAUCACCCAUGUAUAUUAUUAUUAUAUGUUAUAUAU [Title] (Eterna round: R96, puzzle: Exclusion NG 1)
- apparent KD of MS2 coat protein [4]: 0.0195 µM
